For 1 substance, ratio of binding, Ran GTP over Ran GDP results are on record in paper PMC4335507.

The target in the assay is GST-Ran Q69L, GTP-bound (UniProt Q9VZ23). In words: pull-down; GST-Ran loaded with GDP or GST-Ran Q69L loaded with GTP γS, or GST alone, on beads incubated with TIM-V5 expressed in S2 cells, 4 h at 4°C; bound TIM-V5 detected with anti-V5.

“V5-tagged wild-type TIM (TIMELESS) (from UniProt P49021 1-1398) (natural protein)”: the ratio of binding, Ran GTP over Ran GDP turned out to be 1.64.
